Laboratory results from US20260306676A1, “FLUORESCEIN-LABELED NERVE TARGETING PEPTIDE FORMULATIONS AND RELATED METHODS” (ALUME BIOSCIENCES, INC., priority 2023, published 2026).
In brackets after ≈: the same amount, converted by molar mass. Structures can show the parent of a compound that is named as a salt.

Legend:
[1] = Thermogravimetric analysis of purified ALM-488 chloride salt; assay type: physicochemical
[2] = pH-moderated solubility (NaOH titration) of ALM-488 salts; assay type: physicochemical; conditions: for initial pH of mixture: before NaOH, acetate mixture ~50 mg/mL
Protocol: A titration experiment was carried out using the ALM-488, HCl salt to determine if a nominal 40-50 mg/mL or higher solubility could be retained as pH is increased by gradual addition of NaOH. […] At solution pH values <4 the peptide remained in solution at concentrations >50 mg/mL. Above pH 4, the peptide precipitated. […] Dilution of the mixture due to base addition decreased the peptide concentration to ~47 mg/mL at pH values >7.
FIG. 8 is an overlay of the titration curves for ALM-488 hydrochloride and the ALM-488 acetate.

[3] = Karl Fisher water content of purified ALM-488 chloride salt; assay type: physicochemical; conditions: oven 100° C.
Protocol: Karl Fisher titration was carried out on the chloride salt of ALM-488 using a Mettler Toledo Stromboli automatic oven sample changer. The instrument was standardized with a Hydranal® Water standard (Fluka). The solid ALM-488 sample was weighed into a sample vial and was heated to 100° C. in the oven, and the water vaporized from the sample was transferred to the titrator cell by purge gas.

[4] = Influence of storage temperature on stability of ALM-488 solution (HPLC); assay type: physicochemical
Protocol: To evaluate whether the ALM-488, HCl salt can be supplied in the form of a concentrated frozen solution, 50 mg/mL solutions of the HCl salt were prepared in water and evaluated for storage stability at different temperatures. The solutions having pH of 1.87 were prepared in sterile water for injection, and these solutions were stored at different storage temperatures (−20° C., 5° C. and 40° C.) and were analyzed using the HPLC method of Table 3 at different time periods.

[5] = Effect of organic amine compounds on solubility of ALM-488 (pH titration)
Protocol: To assess formulations that could be used to prepare ~50 mg/vial samples of ALM-488, and samples having an ALM-488 concentration of ~50 mg/mL, formulations having different organic amine compounds were studied. Each of these samples included (i) ALM-488 hydrochloride, (ii) a suitable base appropriate for a freeze-dried formulation (to adjust solution pH to optimal 7-8, as described in Examples 4 and 5), and (iii) at least one organic amine compound functioning as a pH-adjusting agent, bulking agent and/or a tonicity-adjusting agent. […] 55-60 mg/mL solutions of ALM-488 (pH 1.8-1.9) were titrated by gradual addition of 750 mM arginine, 1 M Tris, or 1 M meglumine.

[6] = Influence of pH on solubility and stability of ALM-488; assay type: physicochemical
Protocol: To understand pH-stability relationships, solutions of the ALM-488, HCl salt were prepared at ~1 mg/mL in 50 mM sodium citrate (pH 4-6) or sodium phosphate buffer (pH 7-8) solutions. […] All mixtures were filtered through a 0.45 μm PVDF syringe filter to remove undissolved solid, prior to storage. The filtered solution pH values were measured, and the samples were analyzed by HPLC using the HPLC method conditions of Table 3. Table lists the measured concentrations of ALM-488 (after filtration) as well as the measured solution pH values.
The solutions were then transferred into HPLC sample vials and were stored at 5° C., room temperature (22-23° C.) and 40° C.
Table 5 below summarizes the measured concentrations of intact ALM-488 peptide quantified relative to a standard solution, as well as the area % of the main peptide peaks as measured using the HPLC analysis method of Table 3. FIG. 9 is an overlay of representative chromatograms of the ALM-488 solutions at different solution pH values stored at 40° C. for 24 h. […] At higher pH values, the impurity at RRT ~0.96 appeared to grow during storage.

[7] = Drug product assay of lyophiles by HPLC; assay type: physicochemical; conditions: Pre-Lyo., starting peptide
Protocol: The content and purity of the ALM-488 peptide in the lyophilized product vials for Samples 10-1, 10-2 and 10-3 were evaluated using the HPLC method conditions of Table 3. […] The resulting solution was then transferred to a 200 mL volumetric flask. Each vial was rinsed well with water, and the rinses were transferred to the flask prior to volume make-up to 200 mL with water. The resulting solutions (~0.25 mg/mL of ALM488) were individually injected into the HPLC system and were analyzed as described above. The lyophilization process appeared to cause a small increase in the levels of some impurities.

[8] = After 24 hours at 40° C., Citrate buffer 50 mM, pH 3.95
[9] = After 24 hours at 40° C., Citrate buffer 50 mM, pH 4.97
[10] = After 24 hours at 40° C., Citrate buffer 50 mM, pH 6.01
[11] = After 24 hours at 40° C., Phos. buffer 50 mM, pH 7.04
[12] = After 24 hours at 40° C., Phos. buffer 50 mM, pH 8.18
[13] = After 24 hours at 40° C., Water
[14] = Initial, Citrate buffer 50 mM, pH 3.95
[15] = Initial, Citrate buffer 50 mM, pH 4.97
[16] = Initial, Phos. buffer 50 mM, pH 7.04
[17] = Initial, Phos. buffer 50 mM, pH 8.18
[18] = 50 mg/mL in sterile water, 7 Days (5° C.)
[19] = 50 mg/mL in sterile water, 7 Days (40° C.)
[20] = 50 mg/mL in sterile water, 7 Days (−20° C.)
[21] = 50 mg/mL in sterile water, Initial (RT)

## CC(C)[C@H](NC(=O)[C@H](Cc1ccc(O)cc1)NCCCCC(=O)[C@H](Cc1ccc(O)cc1)NC(=O)[C@@H]1CCCN1C(=O)[C@H](CCC(=O)O)NC(=O)[C@H](CCC(=O)O)NC(=O)[C@H](Cc1c[nH]c2ccccc12)NC(=O)[C@@H]1CCCN1C(=O)[C@@H](NC(=O)[C@H](CCC(N)=O)NC(=O)c1ccc2c(c1)C(=O)OC21c2ccc(O)cc2Oc2cc(O)ccc21)C(C)C)C(=O)N[C@H](C(=O)N[C@@H](CCCCN)C(=O)N[C@@H](CCCCN)C(=O)N[C@@H](CO)C(=O)N[C@@H](CO)C(=O)NCC(=O)NCC(N)=O)C(C)C [ALM-488, HCl salt]
[1]; TGA
  onset of steep decrease in weight, presumably degradation: 200-250 °C
[1]; heated to 100° C.
  weight loss by TGA: 3.96%
[2]; NaOH titration
  pH of resistance to pH change upon base addition (may coincide with pKa of glutamic acid and 5-FAM), first: ~ 4.5
  pH of resistance to pH change upon base addition (may coincide with pKa of glutamic acid and 5-FAM), second: ~ 6.5
[2]; above pH 4, NaOH titration
  precipitation: precipitated
[2]; listed as ALM-488 hydrochloride
  initial pH of mixture: ~ 1.8
[2]; pH >7, NaOH titration
  dissolution: complete dissolution
[2]; pH >7, after dilution by base addition
  peptide concentration in solution: ~ 47 mg/mL
[2]; pH ~4.5 to 5.5, NaOH titration
  appearance: opaque dispersion
[2]; pH ~6.5, NaOH titration
  appearance: clarification of the mixture
[2]; water with naoh, pH <4, NaOH titration, read-out: concentration remaining in solution
  solubility: > 50000 µg/mL
[2]; water, visual assessment, solution pH <2, read-out: solubility
  solubility: > 180000 µg/mL
[2]; ~55 mg/mL in water, start of titration
  solution pH: 1.7
[3]
  water content: 4.08%
[4]; 50 mg/mL in sterile water for injection
  solution pH: 1.87
[5]; 107 mM tris (pH 7.3)
  Calculated total ALM-488 peptide concentration: 49.2 mg/mL
[5]; 116 mM arginine (pH 7.61)
  Calculated total ALM-488 peptide concentration: 51.7 mg/mL
[5]; l-arginine titration
  solubility: < 50000 µg/mL
[5]; meglumine titration
  solubility: < 50000 µg/mL
[5]; meglumine titration end (printed 107 mm tris)
  solution pH: 7.88
[5]; meglumine titration, pH 7.88
  Calculated total ALM-488 peptide concentration: 49.2 mg/mL
[5]; no L-arginine added
  solution pH: 1.86
[5]; no L-arginine added (pH 1.86)
  Calculated total ALM-488 peptide concentration: 55 mg/mL
[5]; no Tris added
  solution pH: 1.89
[5]; no Tris added (pH 1.89)
  Calculated total ALM-488 peptide concentration: 55 mg/mL
[5]; no meglumine added
  solution pH: 1.86
[5]; no meglumine added (pH 1.86)
  Calculated total ALM-488 peptide concentration: 55 mg/mL
[5]; tromethamine (tris) titration
  solubility: < 50000 µg/mL
[5]; with 107 mM tris
  solution pH: 7.3
[5]; with 116 mM arginine
  solution pH: 7.61

## CC(C)[C@H](NC(=O)[C@H](Cc1ccc(O)cc1)NCCCCC(=O)[C@H](Cc1ccc(O)cc1)NC(=O)[C@@H]1CCCN1C(=O)[C@H](CCC(=O)O)NC(=O)[C@H](CCC(=O)O)NC(=O)[C@H](Cc1c[nH]c2ccccc12)NC(=O)[C@@H]1CCCN1C(=O)[C@@H](NC(=O)[C@H](CCC(N)=O)NC(=O)c1ccc2c(c1)C(=O)OC21c2ccc(O)cc2Oc2cc(O)ccc21)C(C)C)C(=O)N[C@H](C(=O)N[C@@H](CCCCN)C(=O)N[C@@H](CCCCN)C(=O)N[C@@H](CO)C(=O)N[C@@H](CO)C(=O)NCC(=O)NCC(N)=O)C(C)C [ALM-488 acetate]
[2]
  initial pH of mixture: ~ 4
[2]; compared with hydrochloride salt
  amount of NaOH required to adjust pH to ~7: lower than that for the hydrochloride salt
[2]; initial pH ~4, ~50 mg/mL
  dissolution / appearance: did not completely dissolve and formed an opaque orange dispersion
[2]; pH >7, NaOH added
  appearance: clear solution

## CC(C)[C@H](NC(=O)[C@H](Cc1ccc(O)cc1)NCCCCC(=O)[C@H](Cc1ccc(O)cc1)NC(=O)[C@@H]1CCCN1C(=O)[C@H](CCC(=O)O)NC(=O)[C@H](CCC(=O)O)NC(=O)[C@H](Cc1c[nH]c2ccccc12)NC(=O)[C@@H]1CCCN1C(=O)[C@@H](NC(=O)[C@H](CCC(N)=O)NC(=O)c1ccc2c(c1)C(=O)OC21c2ccc(O)cc2Oc2cc(O)ccc21)C(C)C)C(=O)N[C@H](C(=O)N[C@@H](CCCCN)C(=O)N[C@@H](CCCCN)C(=O)N[C@@H](CO)C(=O)N[C@@H](CO)C(=O)NCC(=O)NCC(N)=O)C(C)C [ALM-488, Bevonescein]
[6]; 50 mm citrate buffer, aqueous buffer, citrate buffers (pH 4-6), read-out: solubility
  solubility: < 1000 µg/mL
[6]; [8]
  ALM488 concentration: 0.87 mg/mL
  HPLC purity, area %: 99.5%
[6]; [9]
  ALM488 concentration: 0.18 mg/mL
  HPLC purity, area %: 99.8%
[6]; [10]
  ALM488 concentration: 0.60 mg/mL
  HPLC purity, area %: 99.8%
[6]; [11]
  ALM488 concentration: 0.95 mg/mL
  HPLC purity, area %: 99.8%
[6]; [12]
  ALM488 concentration: 0.96 mg/mL
  HPLC purity, area %: 99.5%
[6]; [13]
  ALM488 concentration: 0.86 mg/mL
  HPLC purity, area %: 99.3%
[6]; Citrate buffer 50 mM (pH 3.95)
  Measured solution pH: 3.85
[6]; Citrate buffer 50 mM (pH 3.95), read-out: Measured concentration in filtered solution
  solubility: 830 µg/mL (≈ 351 µM)
[6]; Citrate buffer 50 mM (pH 4.97)
  Measured solution pH: 4.89
[6]; Citrate buffer 50 mM (pH 4.97), read-out: Measured concentration in filtered solution
  solubility: 180 µg/mL (≈ 76.1 µM)
[6]; Citrate buffer 50 mM (pH 6.01)
  Measured solution pH: 5.91
[6]; Citrate buffer 50 mM (pH 6.01), read-out: Measured concentration in filtered solution
  solubility: 610 µg/mL (≈ 258 µM)
[6]; [14]
  ALM488 concentration: 0.83 mg/mL
  HPLC purity, area %: 99.3%
[6]; [15]
  ALM488 concentration: 0.18 mg/mL
  HPLC purity, area %: 99.8%
[6]; Initial, Citrate buffer 50 mM, pH 6.01
  ALM488 concentration: 0.61 mg/mL
[6]; [16]
  ALM488 concentration: 0.94 mg/mL
  HPLC purity, area %: 99.7%
[6]; [17]
  ALM488 concentration: 0.95 mg/mL
  HPLC purity, area %: 99.7%
[6]; Initial, Water
  ALM488 concentration: 0.86 mg/mL
  HPLC purity, area %: 99.8%
[6]; Phos. buffer 50 mM (pH 7.04)
  Measured solution pH: 6.94
[6]; Phos. buffer 50 mM (pH 8.18)
  Measured solution pH: 7.90
[6]; Water
  Measured solution pH: 3.46
[6]; aqueous buffer, pH 5, citrate buffer, read-out: solubility near isoelectric pH
  solubility: ~200 µg/mL (≈ 84.5 µM)
[6]; neutral pH values
  solution stability: adequate solution stability
[6]; phosphate buffer 50 mm, Phos. buffer 50 mM (pH 7.04), read-out: Measured concentration in filtered solution
  solubility: 940 µg/mL (≈ 397 µM)
[6]; phosphate buffer 50 mm, Phos. buffer 50 mM (pH 8.18), read-out: Measured concentration in filtered solution
  solubility: 950 µg/mL (≈ 401 µM)
[6]; water (pH 3.46), 40° C. for 24 h
  impurity at RRT ~1.4: ~ 0.5 area %
[6]; water (pH 3.5) and phosphate buffer (pH 7-8), ~1 mg/mL
  dissolution: rapid and complete
[6]; water, read-out: Measured concentration in filtered solution
  solubility: 860 µg/mL (≈ 363 µM)
[4]; [18]
  ALM-488 main peak: 99.61 AREA %
  impurity RRT~0.73: 0.07 AREA %
  impurity RRT~0.97: 0.15 AREA %
  impurity RRT~1.06: 0.14 AREA %
  impurity RRT~1.38: 0.05 AREA %
[4]; [19]
  ALM-488 main peak: 97.96 AREA %
  impurity RRT~0.73: 0.05 AREA %
  impurity RRT~0.93: 0.09 AREA %
  impurity RRT~0.97: 0.07 AREA %
  impurity RRT~1.06: 1.43 AREA %
  impurity RRT~1.18: 0.07 AREA %
  impurity RRT~1.38: 0.27 AREA %
[4]; [20]
  ALM-488 main peak: 99.56 AREA %
  impurity RRT~0.73: 0.07 AREA %
  impurity RRT~0.94: 0.03 AREA %
  impurity RRT~0.97: 0.16 AREA %
  impurity RRT~1.06: 0.15 AREA %
  impurity RRT~1.38: 0.04 AREA %
[4]; [21]
  ALM-488 main peak: 99.64 AREA %
  impurity RRT~0.94: 0.09 AREA %
  impurity RRT~0.97: 0.23 AREA %
  impurity RRT~1.06: 0.09 AREA %
[7]
  ALM-488 main peak: 99.69 Area %
  impurity RRT~0.97: 0.14 Area %
  impurity RRT~1.06: 0.11 Area %
  impurity RRT~1.38: 0.02 Area %
[5]
  solubility: > 50000 µg/mL
